Laboratory results published in the supplement of paper PMC11780869.

System: Bacillus subtilis
Test: cleaved RNA product abundance (RNA/gDNA barcode ratio) relative to median wild-type variant (ratio to wild type); higher = more accumulation of the downstream cleavage product
Outline: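 Cleaved product abundance was measured with barcoded reporter mRNAs (truncated aprE or tetM) carrying mutagenized RNase Y cleavage-site windows in the B. subtilis chromosome. Cultures in LB at 37°C grew from OD600 0.0003 to 0.3. Gel-selected cleaved RNA was reverse transcribed and barcode-sequenced with genomic DNA barcodes, and the RNA:gDNA barcode ratio per construct was scaled to the median construct bearing the unmutated site.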

[1] = experiment (reporter, strain, medium): exp 2b: truncated aprE reporter, strain BJT200, cleavage site: cggR-gapA (positions -7 to +36 mutated)
[2] = experiment (reporter, strain, medium): exp 4a: truncated aprE reporter, strain BJT201 with 2% xylose (RNase J1 expressed), cleavage site: cggR-gapA (positions -7 to +36 mutated)
[3] = experiment (reporter, strain, medium): exp 8a: truncated aprE reporter, strain BJT201 with 2% xylose (RNase J1 expressed), cleavage site: glnRA (positions -5 to +31 mutated)

Sequence	cleaved RNA product abundance [2]	cleaved RNA product abundance [3]	other results
ACAGACGAAGGAGCCGCAAAGAAGTTATTATGGGATGAATAATCCCTCAATATAAAAATCTCTCACTTATTTAAA	0.391		cleaved RNA product abundance [1]: 0.279
ACAGACGAAGGAGCCGCAAAGAAGTTATTAAGGTATGAATAATCCGTCAATATAAATATCTCTCACTTATTTAAA	0.0909		cleaved RNA product abundance [1]: 0.0647; cleaved RNA product abundance (experiment (reporter, strain, medium): exp 6: tetM reporter, strain 168, cleavage site: cggR-gapA (positions -7 to +36 mutated)): 0.0676
ACAGACGAAGGAGCCGCAAAGAAGTTATAAAGGGATGAATAATCCGTCAATATAAATATCTCTCACTTATTTAAA			cleaved RNA product abundance [1]: 0.154
CGACATGTCCCGCTTCTTTCATTAATCCGTTAGCAACTGTTTTACTATATACATTTTCCTTTTAAGAGGAGGAAT		0.458	
ACAGACGAAGGAGCCGCAAAGACGTTATTAAGGGATGAATCATCCCTCAATATAAATATCTCTCACTTATTTAAA	0.771		cleaved RNA product abundance [1]: 0.89
CGACATGTCCCGCTTCTTTCATTAATCCGTTAGCAACTGTGTTGCTATATACATTTACCGTTTAAGAGGAGGAAT		0.537	
ACAGACGAAGGAGCCGCAAAGAAGTTATTAAGGAATGAATAATCTCTCAATATAAATATCTCTCACTTATTTAAA	0.155		cleaved RNA product abundance [1]: 0.0991
CGACATGTCCCGCTTCTTTCATTAATCCGTTAGCAACTATTTTACTATATACATTTACCTTTTAAGAGGAGGAAT		0.726	
ACAGACGAAGGAGCCGCAAAGAAGTTATTAAGGGATGAATAATACCTCAATATAAATAACTCTCACTTATTTAAA	0.0774		cleaved RNA product abundance [1]: 0.144
CGACATGTCCCGCTTCTTTCATTAATACGTTAGCAACTGTTTTGCTATATACATTTATCTTTTAAGAGGAGGAAT		1.51	
CGACATGTCCCGCTTCTTTCATTAATCCGTTAGCAACTTTTTTACTATATACATTTACCTTTTAAGAGGAGGAAT		0.744	
ACAGACGAAGGAGCCGCAAAGAAGTTTTTAAGGGATGAATAATCCCTCAATTTAAATATCTCTCACTTATTTAAA	0.188		
CGACATGTCCCGCTTCTTTCATTAATCCGTTAGCAACGGTTTTGCTATATACATTTACCTTTTAAGAGGAGGAAT		0.387	
ACAGACGAAGGAGCCGCAAAGAAGTTATTACGGGATGAATAATCCCTCAATATAAATATTTCTCACTTATTTAAA	0.399		
CGACATGTCCCGCTTCTTTCATTAATCCGTTAGCAACTGTTTTGCAATATACATTTACCCTTTAAGAGGAGGAAT		0.405	
CGACATGTCCCGCTTCTTTCATTAATCAGTTAGCAACTGTTTTGCTATATACTTTTACCTTTTAAGAGGAGGAAT		0.343	

Sequence	cleaved RNA product abundance [2]	cleaved RNA product abundance [3]	other results
CGACATGTCCCGCTTCTTTCATTAATCCGTTAGCAACTGTTTTGATATATATATTTACCTTTTAAGAGGAGGAAT		0.766	
ACAGACGAAGGAGCCGCGAAGAAGTTATTAAGGGATGAATAATCACTCAATATAAATATCTCTCACTTATTTAAA	0.122		
ACAGACGAAGGAGCCGCAAAGAAGTTATTAAGGGCTAAATAATCCCTCAATATAAATATCTCTCACTTATTTAAA	0.368		cleaved RNA product abundance [1]: 0.389
ACAGACGAAGGAGCCGCAAAGAAGTTATTAAGGTATGAATAATCCCTCATTATAAATATCTCTCACTTATTTAAA	0.107		
CGACATGTCCCGCTTCTTTCATTAATCCGTTAGAAACTGTTGTGCTATATACATTTACCTTTTAAGAGGAGGAAT		0.361	
CGACATGTCCCGCTTCTTTCATTAATCCGTTACCGACTGTTTTGCTATATACATTTACCTTTTAAGAGGAGGAAT		0.269	
CGACATGTCCCGCTTCTTTCATTAATACTTTAGCAACTGTTTTGCTATATACATTTACCTTTTAAGAGGAGGAAT		0.611	
CGACATGTCCCGCTTCTTTCATTAATCCGTTAGCAACTGTTTTGCTATATACATATATCTTTTAAGAGGAGGAAT		1.06	
ACAGACGAAGGAGCCGCAAAGAAGTTATTAAGGGATGAATCATCCCTCAAGATAAATATCTCTCACTTATTTAAA	0.27		
CGACATGTCCCGCTTCTTTCATTAATCCGTTAGCAACTGTTTTGCTATATACTTTTACCTTTTAAGAGGAGGAAT		0.641	
CGACATGTCCCGCTTCTTTCATTAATCCGTAAGCAACTGTTTTGCTATGTACATTTACCTTTTAAGAGGAGGAAT		0.0895	
CGACATGTCCCGCTTCTTTCATTACTCTGTTAGCAACTGTTTTGCTATATACATTTACCTTTTAAGAGGAGGAAT		0.791	
ACAGACGAAGGAGCCGCAAAGAAGTTATTAAGGGACGAATAATCCCTCAAAATAAATATCTCTCACTTATTTAAA	0.346		
ACAGACGAAGGAGCCGCAAAGAAGTTATTAAGGTATGAATAATCGCTCAATATAAATATCTCTCACTTATTTAAA	0.0909		
CGACATGTCCCGCTTCTTTCATTAATCCGTAAACAACTGTTTTGCTATATACATTTACCTTTTAAGAGGAGGAAT		0.159	
CGACATGTCCCGCTTCTTTCATTAATCCGTTAGCAACTGTTTTGCTATATACATTTCCCTTTTAAGAGGAGGAAT		0.531	
